Test results as given in US20160348113, “RNA APTAMERS AGAINST BAFF-R AS CELL-TYPE SPECIFIC DELIVERY AGENTS AND METHODS FOR THEIR USE” (CITY OF HOPE, published 2016).

Experiments:
[1] = biological target: T1, BAFF-R (B-cell activating factor receptor, TNFRSF13C) (Homo sapiens, UniProt Q96RJ3 Q96RJ3:1-76); assay: EMSA; about; UU linker; conditions: tags: ProSpect (Israel), human recombinant; label: 32P
T1 sequence: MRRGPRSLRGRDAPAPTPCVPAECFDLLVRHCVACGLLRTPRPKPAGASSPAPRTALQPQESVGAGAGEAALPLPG
Procedure: (§1) The binding activities of the RNA pools were further confirmed by gel shift assays. Briefly, the BAFF-R protein was serially diluted to the desired concentrations (0˜2560 nM). A constant amount of P³² end-labeled RNA (2 nM) was used. The binding reaction was performed as described above. After incubation, 25 μL of binding reaction was loaded into a 5% non-denaturing polyacrylamide gel. Following electrophoresis the gel was exposed to a Phosphor image screen and the radioactivity was quantified using a Typhoon scanner. The dissociation constants were calculated using non-linear curve regression with a Graph Pad Prism. […] The dissociation constants (Kd) for selected aptamers (R-1, R-2 and R-14) with the target protein were calculated from a native gel mobility shift assay (FIG. 16A).
(§2) Binding affinities were also assessed by flow cytometry (FIG. 28). […] To determine if the bound chimeras were internalized in the BAFF-R expressing cells, out Z-axis confocal microscopy was performed with Jeko-1 cells and CEM control cells incubated with Cy3-labeled transcripts as described above. […] To visualize the nucleus, the cells were stained with the nuclear dye Hoechst 33342 after incubation with Cy3-RNA.

[2] = biological target: T1, BAFF-R (B-cell activating factor …); assay: EMSA; high-salt binding buffer (10 mM HEPES pH 7.4, 150 mM NaCl, 1 mM CaCl2, 1 mM MgCl2, tRNA); about; conditions: tags: ProSpect (Israel), human recombinant; label: 5'-32P or Cy3
Procedure: (§3) Filter binding assays were used to detect the binding affinity of the individual aptamers. The RNA pool was treated with Calf Intestinal Phoshatase (CIP) to remove the initiating 5′-triphosphate and labeled with γ-³²P-ATP by T4 polynucleotide kinase and the end-labeled RNA pool (10 nM) was incubated with BAFF-R protein (100 nM) and a 10-fold molar excess of nonspecific competitor tRNA (100 nM) in the high-salt RNA binding buffer for 30 min. A 50 μL of binding reaction was separated by a pre-wet nitrocellulose filter. After the filter was washed with 2 mL binding buffer, the radioactivity retained on the filter was counted by a multi-purpose scintillation counter (Beckman Coulter).
as §1, with “After incubation, 25 μL of binding reaction was loaded into a 5% non-denaturing polyacrylamide gel.” left out

[3] = biological target: T1, BAFF-R (B-cell activating factor …); assay: EMSA; parental R-1 in STAT3 chimera comparison; conditions: tags: ProSpect (Israel), human recombinant; label: 5'-32P or Cy3
Procedure: as §1
(§4) The binding affinities of the chimeras for BAFF-R protein were assessed by gel shift assay (FIG. 40C and FIG. 49A). […] To determine whether the bound chimera is internalized by BAFF-R expressing cells, real-time Z-axis confocal microscopy was performed (FIG. 41A-C and FIG. 49B). The Cy3-labeled chimeras were successfully internalized into BAFF-R expressing cells (Jeko-1 and Z138) after 5 h post treatment.

[4] = biological target: T1, BAFF-R (B-cell activating factor …); assay: EMSA; high-salt binding buffer; about; conditions: tags: ProSpect (Israel), human recombinant; label: 5'-32P or Cy3
Procedure: as §3
as §1, with “After incubation, 25 μL of binding reaction was loaded into a 5% non-denaturing polyacrylamide gel.” left out

[5] = biological target: T1, BAFF-R (B-cell activating factor …); assay: EMSA; about; R-22 used as low-affinity negative control; conditions: tags: ProSpect (Israel), human recombinant; label: 32P
Procedure: as §1, §2

[6] = biological target: T1, BAFF-R (B-cell activating factor …); assay: EMSA; 8U linker; conditions: tags: ProSpect (Israel), human recombinant; label: 32P
Procedure: as §1, §4

B1: R-1 D-1-Mutated chimera (mixed)
RNA 1: GGGAGGACGAUGCGGGAGGCUCAACAAUGAUAGAGCCCGCAAUGUUGAUAGUUGUGCCCAGUCUGCAGACGACUCGCCCGAUUCUCCAGAUUCCAAGCACAUUGUGAA
RNA 2: UUCACAAUGUGCUUGGAAUCUGGAGCA
modifications: 2'-F pyrimidines in transcribed aptamer-sense strand
B1 was tested, and the Kd [1] was 51 nM.

B2: R-1 D-1 chimera (CCND1 siRNA design 1) (mixed)
RNA 1: GGGAGGACGAUGCGGGAGGCUCAACAAUGAUAGAGCCCGCAAUGUUGAUAGUUGUGCCCAGUCUGCAGACGACUCGCCCGAUUCCACAGAUGUGAAGUUCAUUUCCAA
RNA 2: UUGGAAAUGAACUUCACAUCUGUGGCA
modifications: 2'-F pyrimidines in transcribed aptamer-sense strand
B2 was tested, and the Kd [1] was 66 nM.

B3: R-1 aptamer (ssRNA)
RNA: GGGAGGACGAUGCGGGAGGCUCAACAAUGAUAGAGCCCGCAAUGUUGAUAGUUGUGCCCAGUCUGCAGACGACUCGCCCGA
modifications: 2'-F pyrimidines (2'-F-C, 2'-F-U)
In the case of B3, the Kd [2] is reported as 47 nM and the Kd [3] is reported as 54 nM.

B4: R-14 aptamer (ssRNA)
RNA: GGGAGGACGAUGCGGAUAACUAUUGUGCUAGAGGGCUUAUUUAUGUGAGCCGGUUGAUAGUUGCGCAGACGACUCGCCCGA
modifications: 2'-F pyrimidines (2'-F-C, 2'-F-U)
Binder B4 has a Kd [4] of 96 nM.

B5: R-14 D-2 chimera (mixed)
RNA 1: GGGAGGACGAUGCGGAUAACUAUUGUGCUAGAGGGCUUAUUUAUGUGAGCCGGUUGAUAGUUGCGCAGACGACUCGCCCGAUUUGUGCCACAGAUGUGAAGUUCAUUUCC
RNA 2: AAAUGAACUUCACAUCUGUGGCACA
modifications: 2'-F pyrimidines in transcribed aptamer-sense strand
B5 was tested, and the Kd [1] was 73 nM.

B6: R-22 D-1 chimera (mixed)
RNA 1: GGAGGACGAUGCGGAUCCUCCGAAGGUCGCGCCAACGUCACACAUUAAGCUUUUGUUCGUCUGCAGACGACUCGCCCGAUUCCACAGAUGUGAAGUUCAUUUCCAA
RNA 2: UUGGAAAUGAACUUCACAUCUGUGGCA
modifications: 2'-F pyrimidines in transcribed aptamer-sense strand
In the case of B6, the Kd [5] is reported as 191 nM.

B7: R-1 D-2 chimera (CCND1 siRNA design 2) (mixed)
RNA 1: GGGAGGACGAUGCGGGAGGCUCAACAAUGAUAGAGCCCGCAAUGUUGAUAGUUGUGCCCAGUCUGCAGACGACUCGCCCGAUUUGUGCCACAGAUGUGAAGUUCAUUUCC
RNA 2: AAAUGAACUUCACAUCUGUGGCACA
modifications: 2'-F pyrimidines in transcribed aptamer-sense strand
B7 was tested, and the Kd [1] was 126 nM.

B8: R-1-STAT3 27-mer SWAP chimera (mixed)
RNA 1: GGGAGGACGAUGCGGGAGGCUCAACAAUGAUAGAGCCCGCAAUGUUGAUAGUUGUGCCCAGUCUGCAGACGACUCGCCCGAUUUUUUUUUCAGUCGUAUCUUUCUGCAGCUUCCGU
RNA 2: GGAAGCUGCAGAAAGAUACGACUGA
modifications: 2'-F pyrimidines in transcribed aptamer strand
B8 was tested, and the Kd [6] was 56 nM.

B9: R-1-STAT3 27-mer OVH chimera (mixed)
RNA 1: GGGAGGACGAUGCGGGAGGCUCAACAAUGAUAGAGCCCGCAAUGUUGAUAGUUGUGCCCAGUCUGCAGACGACUCGCCCGAUUUUUUUUGAGAACGGAAGCUGCAGAAAGAUACGA
RNA 2: GUAUCUUUCUGCAGCUUCCGUUCUC
modifications: 2'-F pyrimidines in transcribed aptamer strand
With B9 the Kd [6] was 35 nM.

B10: R-14 D-1 chimera (mixed)
RNA 1: GGGAGGACGAUGCGGAUAACUAUUGUGCUAGAGGGCUUAUUUAUGUGAGCCGGUUGAUAGUUGCGCAGACGACUCGCCCGAUUCCACAGAUGUGAAGUUCAUUUCCAA
RNA 2: UUGGAAAUGAACUUCACAUCUGUGGCA
modifications: 2'-F pyrimidines in transcribed aptamer-sense strand
B10 was tested, and the Kd [1] was 80 nM.
